Results reported in patent US20240068004A1 (MBRACE THERAPEUTICS, published 2024).

B1: anti-GRP78 antibody clone F6 (antibody, IgG1, V domains shown)
VH: QVQLQQSGPGLVKPPQTLSLTCAISGDSVSSNSAAWNWIRQSPSRGLEWLGRTYYRSKWYNDYAVSVKSRITINPDTSKNQFSLQLNSVTPEDTAVYYCARDPYYYDSSGYYYFDAFDIWGQGTMVTVSS
VL: SYELTQPHSVSVAPGQTARITCGGDNIGSKSVHWYQQRPGQAPVLVVYDDSDRPSGIPERFSGSNSENTATLTISGVEAGDEADYYCQVWDSTSHHVVFGGGTKLTVL
notes: Fully human mAb formatted as full-length IgG1; also called F6 mAb
B2: anti-GRP78 antibody clone B4 (antibody, IgG1, V domains shown)
VH: QVRLQESGPGLVKPSQTLSLTCTVSGGSISSGGYYWSWIRQHPGKGLEWIGYIYYSGSTYYNPSLESRVTISVDTSKNQFSLKLSSVTAADTAVYYCARYSSIDAFEIWGQGTMVTVSS
VL: SYVLTQPPSVSVAPGKTATITCGGDDIGSKSVHWYQQKPGQAPVLVVYDDGDRPSGIPERFSGSNSGNTATLAISRVEAGDEADYYCQVWDSSSDQYVFGSGTKLTVL
notes: Fully human mAb formatted as full-length IgG1; also called B4 mAb

Legend:
Assay in all cases: alanine scan, high-throughput flow cytometry
[1] = molecular target: T1, GRP78 alanine scanning variant R279A (human, UniProt P11021 19-654)
T1 construct: Member of the alanine scanning library of GRP78
T1 sequence (P11021 19-654 R279A limits assumed): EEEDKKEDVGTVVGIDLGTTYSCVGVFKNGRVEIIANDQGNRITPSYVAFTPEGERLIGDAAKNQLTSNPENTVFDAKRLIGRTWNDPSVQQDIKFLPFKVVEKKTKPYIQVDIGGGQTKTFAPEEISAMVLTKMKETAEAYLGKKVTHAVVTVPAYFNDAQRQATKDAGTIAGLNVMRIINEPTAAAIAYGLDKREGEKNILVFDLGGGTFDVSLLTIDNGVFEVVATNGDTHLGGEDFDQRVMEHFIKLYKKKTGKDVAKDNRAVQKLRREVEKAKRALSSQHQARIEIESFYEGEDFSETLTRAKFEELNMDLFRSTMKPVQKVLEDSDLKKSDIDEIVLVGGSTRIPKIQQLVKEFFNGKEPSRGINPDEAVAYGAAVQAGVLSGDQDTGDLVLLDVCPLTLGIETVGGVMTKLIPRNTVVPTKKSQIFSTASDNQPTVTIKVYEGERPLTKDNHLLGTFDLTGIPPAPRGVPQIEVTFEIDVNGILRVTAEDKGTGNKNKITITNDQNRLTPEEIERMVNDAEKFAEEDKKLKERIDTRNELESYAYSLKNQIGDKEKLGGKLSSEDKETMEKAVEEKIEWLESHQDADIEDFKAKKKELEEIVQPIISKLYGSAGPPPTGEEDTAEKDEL
Method: (§1) To characterize the binding properties of the antibodies described in Example 1 for GRP78, epitope mapping analysis was carried out by alanine scanning mutagenesis. An alanine scanning library of GRP78 was constructed. Each anti-GRP78 antibody was then screened for binding to each individual GRP78 variant, allowing identification of the target protein residues involved in antibody binding.
(§2) Binding of each test antibody to each GRP78 variant in the alanine scanning library was determined by high-throughput flow cytometry under high stringency conditions (e.g., increased pH, increased salinity, increased temperature and/or increased wash time). Also included in the experiment was a commercially-available monoclonal antibody, 1H11-1H7, which was verified to bind to the wildtype (WT) GRP78 on cells and thus determined to be a suitable positive control under these conditions (Thermo Fisher Scientific, Waltham, MA). Antibody binding to each of the GRP78 variants as measured by the fluorescence signal (raw fluorescence data minus the background), was normalized to its binding to the WT GRP78. For each GRP78 variant, such normalized binding to the test antibodies was plotted relative to that to the control antibody.

[2] = molecular target: T2, GRP78 alanine scanning variant R261A (human, UniProt P11021 19-654)
T2 construct: Member of the alanine scanning library of GRP78
T2 sequence (P11021 19-654 R261A limits assumed): as the sequence (P11021 19-654 R279A limits assumed) above, with R243A, A261R counted along it
Method: as §1, §2

[3] = molecular target: T3, GRP78 alanine scanning variant H265A (human, UniProt P11021 19-654)
T3 construct: Member of the alanine scanning library of GRP78
T3 sequence (P11021 19-654 H265A limits assumed): as the sequence (P11021 19-654 R279A limits assumed) above, with H247A, A261R counted along it
Method: as §1, §2

[4] = molecular target: T4, GRP78 alanine scanning variant E329A (human, UniProt P11021 19-654)
T4 construct: Member of the alanine scanning library of GRP78
T4 sequence (P11021 19-654 E329A limits assumed): as the sequence (P11021 19-654 R279A limits assumed) above, with A261R, E311A counted along it
Method: as §1, §2

Row | Binder | % binding normalized to WT GRP78 [1] [%] | % binding normalized to WT GRP78 [2] [%] | % binding normalized to WT GRP78 [3] [%] | % binding normalized to WT GRP78 [4] [%]
1 | B1 | < 20 | < 20 | – | –
2 | B2 | – | < 20 | < 20 | < 20
